Target: mLight (rat)
Conditions: scale: % ΔF/Fo

Substance: [D-Ala^2, N-MePhe^4, Gly-ol]-enkephalin (peptide)
- sensor fluorescence response (ΔF/Fo) in HEK293 cells, 500 nM to 100 μM DAMGO: 9.06

Source: publication doi:10.1101/2022.06.01.494241
